These results are taken from patent publication US20140206609A1 (Sanofi, published 2014).

To fix the notation:
T1: human GIP receptor (human, UniProt P48546 22-466)
T1 sequence (looked up): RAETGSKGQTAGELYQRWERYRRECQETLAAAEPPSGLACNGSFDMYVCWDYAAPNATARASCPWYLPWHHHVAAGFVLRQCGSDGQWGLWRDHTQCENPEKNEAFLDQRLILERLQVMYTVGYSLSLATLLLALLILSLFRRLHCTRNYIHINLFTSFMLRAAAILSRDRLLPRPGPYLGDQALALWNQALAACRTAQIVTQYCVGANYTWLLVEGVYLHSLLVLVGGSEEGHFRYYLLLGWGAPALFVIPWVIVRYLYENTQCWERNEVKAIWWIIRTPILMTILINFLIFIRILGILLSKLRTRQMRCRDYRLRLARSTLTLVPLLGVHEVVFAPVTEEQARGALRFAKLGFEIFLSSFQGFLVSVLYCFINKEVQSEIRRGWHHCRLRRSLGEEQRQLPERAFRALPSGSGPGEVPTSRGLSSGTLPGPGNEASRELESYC

B1: SEQ ID NO: 12 (peptide)
peptide: Y[Aib]EGTFTSDLSIQK([γGlu-Palmitoyl])DKRAAQDFIEWLKNGGPSSGAPPPS-NH2
modifications: N-terminus assumed
SMILES: CCCCCCCCCCCCCCCC(=O)N[C@@H](CCC(=O)NCCCC[C@H](NC(=O)[C@H](CCC(N)=O)NC(=O)[C@@H](NC(=O)[C@H](CO)NC(=O)[C@H](CC(C)C)NC(=O)[C@H](CC(=O)O)NC(=O)[C@H](CO)NC(=O)[C@@H](NC(=O)[C@H](Cc1ccccc1)NC(=O)[C@@H](NC(=O)CNC(=O)[C@H](CCC(=O)O)NC(=O)C(C)(C)NC(=O)[C@@H](N)Cc1ccc(O)cc1)[C@@H](C)O)[C@@H](C)O)[C@@H](C)CC)C(=O)N[C@@H](CC(=O)O)C(=O)N[C@@H](CCCCN)C(=O)N[C@@H](CCCNC(=N)N)C(=O)N[C@@H](C)C(=O)N[C@@H](C)C(=O)N[C@@H](CCC(N)=O)C(=O)N[C@@H](CC(=O)O)C(=O)N[C@@H](Cc1ccccc1)C(=O)N[C@H](C(=O)N[C@@H](CCC(=O)O)C(=O)N[C@@H](Cc1c[nH]c2ccccc12)C(=O)N[C@@H](CC(C)C)C(=O)N[C@@H](CCCCN)C(=O)N[C@@H](CC(N)=O)C(=O)NCC(=O)NCC(=O)N1CCC[C@H]1C(=O)N[C@@H](CO)C(=O)N[C@@H](CO)C(=O)NCC(=O)N[C@@H](C)C(=O)N1CCC[C@H]1C(=O)N1CCC[C@H]1C(=O)N1CCC[C@H]1C(=O)N[C@@H](CO)C(N)=O)[C@@H](C)CC)C(=O)O
B2: SEQ ID NO: 10 (peptide)
peptide: Y[Aib]EGTFTSDLSIQK([γGlu-Palmitoyl])ESRAAQDFIEWLKAGGPSSGAPPPS-NH2
modifications: N-terminus assumed
SMILES: CCCCCCCCCCCCCCCC(=O)N[C@@H](CCC(=O)NCCCC[C@H](NC(=O)[C@H](CCC(N)=O)NC(=O)[C@@H](NC(=O)[C@H](CO)NC(=O)[C@H](CC(C)C)NC(=O)[C@H](CC(=O)O)NC(=O)[C@H](CO)NC(=O)[C@@H](NC(=O)[C@H](Cc1ccccc1)NC(=O)[C@@H](NC(=O)CNC(=O)[C@H](CCC(=O)O)NC(=O)C(C)(C)NC(=O)[C@@H](N)Cc1ccc(O)cc1)[C@@H](C)O)[C@@H](C)O)[C@@H](C)CC)C(=O)N[C@@H](CCC(=O)O)C(=O)N[C@@H](CO)C(=O)N[C@@H](CCCNC(=N)N)C(=O)N[C@@H](C)C(=O)N[C@@H](C)C(=O)N[C@@H](CCC(N)=O)C(=O)N[C@@H](CC(=O)O)C(=O)N[C@@H](Cc1ccccc1)C(=O)N[C@H](C(=O)N[C@@H](CCC(=O)O)C(=O)N[C@@H](Cc1c[nH]c2ccccc12)C(=O)N[C@@H](CC(C)C)C(=O)N[C@@H](CCCCN)C(=O)N[C@@H](C)C(=O)NCC(=O)NCC(=O)N1CCC[C@H]1C(=O)N[C@@H](CO)C(=O)N[C@@H](CO)C(=O)NCC(=O)N[C@@H](C)C(=O)N1CCC[C@H]1C(=O)N1CCC[C@H]1C(=O)N1CCC[C@H]1C(=O)N[C@@H](CO)C(N)=O)[C@@H](C)CC)C(=O)O
B3: SEQ ID NO: 11 (peptide)
peptide: Y[Aib]EGTFTSDLSIQK([γGlu-Palmitoyl])DKRAA[Aib]DFIEWLKAGGPSSGAPPPS-NH2
modifications: N-terminus assumed
SMILES: CCCCCCCCCCCCCCCC(=O)N[C@@H](CCC(=O)NCCCC[C@H](NC(=O)[C@H](CCC(N)=O)NC(=O)[C@@H](NC(=O)[C@H](CO)NC(=O)[C@H](CC(C)C)NC(=O)[C@H](CC(=O)O)NC(=O)[C@H](CO)NC(=O)[C@@H](NC(=O)[C@H](Cc1ccccc1)NC(=O)[C@@H](NC(=O)CNC(=O)[C@H](CCC(=O)O)NC(=O)C(C)(C)NC(=O)[C@@H](N)Cc1ccc(O)cc1)[C@@H](C)O)[C@@H](C)O)[C@@H](C)CC)C(=O)N[C@@H](CC(=O)O)C(=O)N[C@@H](CCCCN)C(=O)N[C@@H](CCCNC(=N)N)C(=O)N[C@@H](C)C(=O)N[C@@H](C)C(=O)NC(C)(C)C(=O)N[C@@H](CC(=O)O)C(=O)N[C@@H](Cc1ccccc1)C(=O)N[C@H](C(=O)N[C@@H](CCC(=O)O)C(=O)N[C@@H](Cc1c[nH]c2ccccc12)C(=O)N[C@@H](CC(C)C)C(=O)N[C@@H](CCCCN)C(=O)N[C@@H](C)C(=O)NCC(=O)NCC(=O)N1CCC[C@H]1C(=O)N[C@@H](CO)C(=O)N[C@@H](CO)C(=O)NCC(=O)N[C@@H](C)C(=O)N1CCC[C@H]1C(=O)N1CCC[C@H]1C(=O)N1CCC[C@H]1C(=O)N[C@@H](CO)C(N)=O)[C@@H](C)CC)C(=O)O
B4: SEQ ID NO: 39 (peptide)
peptide: Y[Aib]EGTFTSDLSIQK([γGlu-Palmitoyl])ESRAAQEFIEWLKAGGPSSGAPPPS-NH2
modifications: N-terminus assumed
SMILES: CCCCCCCCCCCCCCCC(=O)N[C@@H](CCC(=O)NCCCC[C@H](NC(=O)[C@H](CCC(N)=O)NC(=O)[C@@H](NC(=O)[C@H](CO)NC(=O)[C@H](CC(C)C)NC(=O)[C@H](CC(=O)O)NC(=O)[C@H](CO)NC(=O)[C@@H](NC(=O)[C@H](Cc1ccccc1)NC(=O)[C@@H](NC(=O)CNC(=O)[C@H](CCC(=O)O)NC(=O)C(C)(C)NC(=O)[C@@H](N)Cc1ccc(O)cc1)[C@@H](C)O)[C@@H](C)O)[C@@H](C)CC)C(=O)N[C@@H](CCC(=O)O)C(=O)N[C@@H](CO)C(=O)N[C@@H](CCCNC(=N)N)C(=O)N[C@@H](C)C(=O)N[C@@H](C)C(=O)N[C@@H](CCC(N)=O)C(=O)N[C@@H](CCC(=O)O)C(=O)N[C@@H](Cc1ccccc1)C(=O)N[C@H](C(=O)N[C@@H](CCC(=O)O)C(=O)N[C@@H](Cc1c[nH]c2ccccc12)C(=O)N[C@@H](CC(C)C)C(=O)N[C@@H](CCCCN)C(=O)N[C@@H](C)C(=O)NCC(=O)NCC(=O)N1CCC[C@H]1C(=O)N[C@@H](CO)C(=O)N[C@@H](CO)C(=O)NCC(=O)N[C@@H](C)C(=O)N1CCC[C@H]1C(=O)N1CCC[C@H]1C(=O)N1CCC[C@H]1C(=O)N[C@@H](CO)C(N)=O)[C@@H](C)CC)C(=O)O

*1 amine or outer side, *2 acyl side, *3 side chain or, on linkers, in order; H or OH if unused. Where no end group is shown, it is not given here. Side-chain parts run from the residue outwards. [ ]: non-standard residue; d: D form. The star is where a group is joined. γGlu = O=C(O)[C@H](CCC(=O)[*:2])N[*:1]; Palmitoyl = CCCCCCCCCCCCCCCC(=O)*; Aib = CC(C)(N)C(=O)O

For one assay, the target named is human GLP-1 receptor (human, UniProt P43220 24-463). As to the kind of experiment: cell-based or functional assay.
As for B1, the “EC50 hGLP-1 R [pM]” value came to 12.7 pM.

Regarding B2, the “EC50 hGLP-1 R [pM]” value came out at 13.2 pM.

As for B3, the “EC50 hGLP-1 R [pM]” value is 11.5 pM.

On to B4, for which the “EC50 hGLP-1 R [pM]” value stood at 4.3 pM.

Another assay has as its target T1, human GIP receptor. As to the kind of experiment: cell-based or functional assay.
Turning to B1, the “EC50 hGIP R [pM]” value is 8.9 pM.

B2: the “EC50 hGIP R [pM]” value turned out to be 15.1 pM.

As to B3, the “EC50 hGIP R [pM]” value turned out to be 3.2 pM.

On to B4, for which the “EC50 hGIP R [pM]” value turned out to be 8.5 pM.

Another assay deals with human glucagon receptor (human, UniProt P47871 26-477). As to the kind of experiment: cell-based or functional assay.
human glucagon receptor, sequence (P47871 26-477): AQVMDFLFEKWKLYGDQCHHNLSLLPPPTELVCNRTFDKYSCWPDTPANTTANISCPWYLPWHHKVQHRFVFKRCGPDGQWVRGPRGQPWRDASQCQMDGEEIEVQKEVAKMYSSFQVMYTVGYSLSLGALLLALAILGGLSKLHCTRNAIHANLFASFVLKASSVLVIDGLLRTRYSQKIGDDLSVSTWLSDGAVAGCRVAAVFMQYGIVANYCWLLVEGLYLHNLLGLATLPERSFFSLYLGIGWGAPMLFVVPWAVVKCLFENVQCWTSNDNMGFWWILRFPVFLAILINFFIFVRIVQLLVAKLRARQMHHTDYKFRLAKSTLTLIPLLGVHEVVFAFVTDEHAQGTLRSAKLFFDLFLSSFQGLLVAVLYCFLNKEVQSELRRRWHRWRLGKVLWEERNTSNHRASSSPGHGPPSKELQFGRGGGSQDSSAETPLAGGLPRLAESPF
For the molecule B1, the “EC50 hGLUC R [pM]” value was found to be 1890 pM.

As to B2, the “EC50 hGLUC R [pM]” value is 40000 pM.

For the molecule B3, the “EC50 hGLUC R [pM]” value turned out to be 7220 pM.

Consider B4, for which the “EC50 hGLUC R [pM]” value was 19300 pM.
